In PMC8833195:

Tests used:
Test in all cases: SEC
[1] = target: HA ectodomain of H1N1 A/California/07/2009 with K51I + E103I (influenza A virus H1N1 A/California/07/2009)
[2] = target: repaired and stabilized HA of H3N2 A/Brisbane/10/2007 (P194L in HA1) (influenza A virus H3N2 A/Brisbane/10/2007)
[3] = target: repaired and stabilized HA of H3N2 A/Singapore/INFIMH/16/0019/2016 (P194L in HA1) (influenza A virus H3N2 A/Singapore/INFIMH/16/0019/2016)

“HA ectodomain of H1N1 A/California/07/2009 with K51I + E103I (domain or fragment)” showed a stoichiometry N [1] of 3.

Substance “repaired and stabilized HA of H3N2 A/Brisbane/10/2007 (P194L in HA1) (domain or fragment)” has a stoichiometry N [2] of 3.

In the case of “repaired and stabilized HA of H3N2 A/Singapore/INFIMH/16/0019/2016 (P194L in HA1) (domain or fragment)”, the stoichiometry N [3] is reported as 3.
